# Test results from US20210347912A1.
# B1: 2B8 predator (VHH)
# VHH: EVQLLESGGGLVQPGGSLRLSCAASGFRDSDEDMGWVRQAPGKGLEWVSSIYAPNGSTYYADSVKGRFTISRDNSKNTLYLQMNSLRAEDTAVYYCASNTYDAFDYWGQGTLVTVSS
# Target: Human YKL-40 also known as Chitinase-3-like protein 1 (CHI3L1) (human) (UniProt P36222)
# Assay: phage ELISA, plate coated with 0.5 ug purified YKL-40, anti-M13-HRP/TMB, well F2
# UniProt P36222, sequence (P36222 22-383 limits assumed): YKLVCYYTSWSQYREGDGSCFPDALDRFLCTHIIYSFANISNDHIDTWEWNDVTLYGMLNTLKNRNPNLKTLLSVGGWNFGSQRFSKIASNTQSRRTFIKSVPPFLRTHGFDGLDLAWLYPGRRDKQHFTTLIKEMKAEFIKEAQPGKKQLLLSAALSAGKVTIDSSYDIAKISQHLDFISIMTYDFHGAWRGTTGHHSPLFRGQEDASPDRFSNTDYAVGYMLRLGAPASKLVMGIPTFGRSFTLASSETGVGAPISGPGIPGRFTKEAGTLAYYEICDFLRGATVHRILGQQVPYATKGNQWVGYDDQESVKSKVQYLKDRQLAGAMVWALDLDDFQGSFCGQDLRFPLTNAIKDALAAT
binder,measurement,value
B1,ELISA signal,0.054
